Test results as given in article PMC4811778 (eLife, 2016).

Target: T1, ElaB (E. coli, UniProt P0AEH5 1-101)
T1 construct: ElaB, E. coli, paralogue of YqjD, inner membrane-associated; source: endogenous, E. coli (MG1665) lysate, log phase and stationary phase
T1 sequence (looked up): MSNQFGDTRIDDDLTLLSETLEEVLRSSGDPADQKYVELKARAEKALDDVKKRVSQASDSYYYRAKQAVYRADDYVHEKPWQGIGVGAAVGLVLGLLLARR
Test: cross-linking; quantitative CXMS: log phase and stationary phase E. coli (MG1665) lysates (100 µg each, 50 mM HEPES pH 8.0, 150 mM NaCl) cross-linked with [d0]-/[d6]-bAL2 at RT for 1 hr, forward and reverse labelling; pLink, pQuant
Details: partners not purified

B1: YqjD (natural protein, E. coli, UniProt P64581 1-101, looked up)
chain: MSKEHTTEHLRAELKSLSDTLEEVLSSSGEKSKEELSKIRSKAEQALKQSRYRLGETGDAIAKQTRVAAARADEYVRENPWTGVGIGAAIGVVLGVLLSRR
notes: source: endogenous, E. coli (MG1665) lysate, log phase and stationary phase
fold increase of the cross-link in the stationary phase over the log phase: ≥ 10 fold
